The record followed here is publication PMC5127646 (2016).

The chains are these.
B1: SmN peptide, residues 219-229 (GMRPPPPGIRG) [human] / RBM5 OCRE domain (residues 451-511), wild type [human] (parent complex)
chain 1: GMRPPPPGIRG
chain 2: GAMGTKYAVPDTSTYQYDESSGYYYDPTTGLYYDPNSQYYYNSLTQQYLYWDGEKETYVPAAES

The variants in the experiment derive from B1. The experiment can be described thus: NMR titration (chemical shift perturbation score); 1:10 ratio of OCRE:peptide; read off a plot.
On to chain 1 P4A, chain 1 P6A, for which the ratio to parent was roughly 0.27.
Consider chain 1 R3E, chain 1 R10E, for which the ratio to parent is roughly 0.05.
In the case of chain 1 R10E, the ratio to parent is roughly 0.54.
With chain 1 R10A, the ratio to parent is roughly 0.67.
In the case of chain 1 R3A, chain 1 R10A, the ratio to parent is roughly 0.24.
As to chain 1 R3E, the ratio to parent is roughly 0.19.
In the case of chain 1 R3A, the ratio to parent was roughly 0.51.
